Data taken from patent US20160251435A1 (INHIBRX, published 2016).
Changes are numbered by the printed parent chain. Read-outs that look alike come from different tables or passages of the source.

Columns and labels:
[1] = target: T1, human CD47, endogenous cell surface form (Raji, CCRF-CEM cells) (human, UniProt Q08722 19-323); assay: apparent KD, flow cytometry on Raji cells, non-linear fit of median fluorescence
T1 construct: the cells carry endogenous CD47; also called cell surface CD47
Description: (§1) Humanized antibodies were tested for their ability to bind Raji cells by flow cytometry (FIG. 7). […] Apparent affinities were determined by non-linear fits (Prism Graphpad Software) of the median fluorescence intensities at various antibody concentrations.

[2] = target: T1, human CD47, endogenous cell surface …; assay: flow cytometry on Raji cells, MFI (FL4)
Description: as §1

[3] = target: T1, human CD47, endogenous cell surface …; assay: apparent KD, flow cytometry on Raji cells, non-linear fit of median fluorescence; remark: listed apart in the source
[4] = target: T1, human CD47, endogenous cell surface …; assay: flow cytometry on Raji cells, MFI (FL4); remark: listed apart in the source
Description: as §1

[5] = target: T1, human CD47, endogenous cell surface …; assay: flow cytometry on Raji cells, MFI (FL4); remark: listed apart in the source
Description: as §1

[6] = target: T1, human CD47, endogenous cell surface …; assay: flow cytometry on Raji cells, MFI (FL4); remark: listed apart in the source
Description: as §1

[7] = target: T1, human CD47, endogenous cell surface …; assay: flow cytometry on Raji cells, MFI (FL4); remark: listed apart in the source
Description: as §1

[8] = target: T1, human CD47, endogenous cell surface …; assay: flow cytometry on CCRF-CEM cells, FITC anti-mouse IgG, MFI-FL1
Excerpt: Bound CD47 antibodies were detected using a FITC conjugated anti-mouse IgG secondary antibody (Jackson ImmunoResearch).

[9] = target: T1, human CD47, endogenous cell surface …; assay: flow cytometry on Raji cells, MFI (FL4); remark: listed apart in the source
Description: as §1

[10] = target: T1, human CD47, endogenous cell surface …; assay: flow cytometry on Raji cells, MFI (FL4); remark: listed apart in the source
Description: as §1

[11] = target: T1, human CD47, endogenous cell surface …; assay: flow cytometry blocking: SIRPa-Fc binding to CCRF-CEM cells with rising antibody (method of Example 3)
[12] = target: T1, human CD47, endogenous cell surface …; assay: apparent KD, flow cytometry on cell surface CD47, non-linear fit of median fluorescence
Description: Apparent affinities were determined by non-linear fits (Prism Graphpad Software) of the median fluorescence intensities at various antibody concentrations.

B1: chimeric 2A1 antibody (2A1-xi) (antibody, V domains shown)
VH: EVQLQQSGAELVRSGASVKLSCTASGFNIKDYYLHWVKQRPEQGLEWIGWIDPDNGDTEFAPKFQGKATMTADTSSNTAYLQLSSLTSEDTAVYYCNAAYGSSSYPMDYWGQGTSVTV
VL: DIKMTQSPSSLYASLGERVTITCKASQDIHRYLSWFQQKPGKSPKILIYRANRLVDGVPSRFSGSGSGQDYSLTISSLEYEDMGIYYCLQYDEFPYTFGGGTKLEIK
[1]
  Kd: 0.0364 nM
[2]
  EC50 (read off the curve): ~0.05 nM
[3]
  Kd: 0.078 nM
[4]
  EC50 (read off the curve): ~0.05 nM
[5]
  EC50 (read off the curve): ~0.2 nM
[6]
  EC50 (read off the curve): ~0.1 nM
[7]
  EC50 (read off the curve): ~0.1 nM

B2: murine 9E4 antibody (antibody, mouse IgG1, V domains shown)
VH: EVQLRQSGPELVKPGASVKISCKASGYSFTDYYMYWVKQSRVRSLAWIGRINPYTGATGYDQNFKDKASLIVDKSSSTAYMELRSLTSEDSAVYYCARGRNRYDGWFAYWGQGTLVTV
VL: EIQMTQTTSSLSASLGDRVTISCRASQDISNYLNWYQQKPDGTVKLLIYYTSRLHSGVPSRFSGSGSGTDYSLTISNLDQEDIATYFCQQGNALPPTFGGGTNLEIK
[8]
  EC50 (read off the curve): ~0.09 nM

B3: humanized antibody AB2.05 (human IgG1) (antibody, V domains shown)
VH: QMQLVQSGAEVKKTGSSVKVSCKASGFNIKDYYLHWVRQAPGQALEWMGWIDPDNGDTEYAQKFQDRVTITRDRSMSTAYMELSSLRSEDTAMYYCNAAYGSSSYPMDYWGQGTTVTV
VL: NIQMTQSPSAMSASVGDRVTITCKASQDIHRYLSWFQQKPGKVPKHLIYRANRLVDGVPSRFSGSGSGTEFTLTISSLQPEDFATYYCLQYDEFPYTFGGGTKVEIK
[9]
  EC50 (read off the curve): ~0.2 nM
[2]
  EC50 (read off the curve): ~0.1 nM
[5]
  EC50 (read off the curve): ~0.3 nM
[7]
  EC50 (read off the curve): ~0.1 nM
[10]
  EC50 (read off the curve): ~0.2 nM

B4: AB25.05 (antibody, V domains shown)
VH: B3 VH with Q1E, M2V, T14P, S16A, S17T, V20I, A24V, R38Q, Q43K, A44G
VL: B3 VL
[9]
  EC50 (read off the curve): ~0.3 nM

B5: AB24.05 (antibody, V domains shown)
VH: B3 VH with Q1E, M2V, T14P, S16A, S17T, V20I, A24V
VL: B3 VL
[9]
  EC50 (read off the curve): ~0.2 nM

B6: AB23.05 (antibody, V domains shown)
VH: B3 VH with R87T, M93V
VL: B3 VL
[7]
  EC50 (read off the curve): ~0.1 nM

B7: AB11.05 (antibody, V domains shown)
VH: B3 VH with S104P
VL: B3 VL
[10]
  EC50 (read off the curve): ~0.2 nM

B8: AB02.03 (antibody, V domains shown)
VH: B3 VH
VL: B3 VL with N1D, A10S, M11L, F36Y, V43A, H46L, E70D, L73F, F83I
notes: humanized variant of 2A1; also called AB2.03
[9]
  EC50 (read off the curve): ~0.5 nM

B9: AB03.09 (antibody, V domains shown)
VH: B3 VH with Q1E, M2V
VL: B3 VL with N1D
notes: humanized variant of 2A1; also called AB3.09
[10]
  EC50 (read off the curve): ~0.1 nM

B10: AB10.13 (antibody, V domains shown)
VH: B3 VH with G56T
VL: B3 VL with K24R, S26R, D28G, H46I
[6]
  binding result: binds

B11: AB02.04 (antibody, V domains shown)
VH: B3 VH
VL: B3 VL with N1D, A10S, M11L, V43A, H46S, E70D
notes: humanized variant of 2A1; also called AB2.04
[9]
  EC50 (read off the curve): ~0.2 nM

B12: AB2.09 (antibody, V domains shown)
VH: B3 VH
VL: B3 VL with N1D
[10]
  EC50 (read off the curve): ~0.2 nM

B13: AB12.05 (antibody, V domains shown)
VH: B3 VH with F27Y, N28T, I29F, K30T, D31Y
VL: B3 VL
[7]
  EC50 (read off the curve): ~0.1 nM

B14: AB16.05 (antibody, V domains shown)
VH: B3 VH with F27Y, N28T, I29F, D31Y
VL: B3 VL
[4]
  binding result: binds

B15: humanized antibody AB6.12-IgG4P (antibody, V domains shown)
VH: B3 VH with N55Q
VL: B3 VL with D56S
notes: Igkappa light chain; also called AB6.12-hIgG4P
[11]
  IC50 (read off the curve): ~0.4 nM
[12]
  Kd: 0.0357 nM

B16: humanized antibody AB6.12-IgG4PE (antibody, V domains shown)
VH: B3 VH with N55Q
VL: B3 VL with D56S
notes: Igkappa light chain; also called AB6.12-hIgG4PE
[11]
  IC50 (read off the curve): ~0.3 nM
[12]
  Kd: 0.0346 nM

B17: AB15.05 (antibody, V domains shown)
VH: B3 VH with F27Y, N28T, K30T, D31Y
VL: B3 VL
[4]
  binding result: binds

B18: AB6.17 (antibody, V domains shown)
VH: B3 VH with N55Q
VL: B3 VL with K24R, S26R, D28G, H46L, D56S
[2]
  EC50 (read off the curve): ~0.2 nM

B19: AB10.14 (antibody, V domains shown)
VH: B3 VH with G56T
VL: B3 VL with K24R, S26R, D28G, D56S
[6]
  EC50 (read off the curve): ~0.3 nM

B20: AB6.14 (antibody, V domains shown)
VH: B3 VH with N55Q
VL: B3 VL with K24R, S26R, D28G, D56S
[6]
  binding result: binds

B21: AB02.07 (antibody, V domains shown)
VH: B3 VH
VL: DIQMTQSPSSLSASVGDRVTITCRASQDIHRYLAWYQQKPGKVPKLLIYRANRLQSGVPSRFSGSGSGTDFTLTISSLQPEDVATYYCLQYDEFPYTFGQGTKVEIK
notes: humanized variant of 2A1; also called AB2.07
[9]
  EC50 (read off the curve): ~0.5 nM

B22: AB22.05 (antibody, V domains shown)
VH: B3 VH with M81L, E82Q
VL: B3 VL
[7]
  EC50 (read off the curve): ~0.1 nM

B23: AB2.13 (antibody, V domains shown)
VH: B3 VH
VL: B3 VL with K24R, S26R, D28G, H46I
[2]
  EC50 (read off the curve): ~0.05 nM

B24: AB02.06 (antibody, V domains shown)
VH: B3 VH
VL: B3 VL with N1D, A10S, M11L, F36Y, V43A, H46R
notes: humanized variant of 2A1; also called AB2.06
[9]
  binding result: binds

B25: AB17.05 (antibody, V domains shown)
VH: B3 VH with F27Y, N28T, I29F, K30T
VL: B3 VL
[10]
  EC50 (read off the curve): ~0.2 nM

B26: humanized antibody AB6.12 (human IgG1) (antibody, V domains shown)
VH: B3 VH with N55Q
VL: B3 VL with D56S
notes: also called AB6.12-IgG1; AB6.12-hIgG1
[11]
  IC50 (read off the curve): ~0.3 nM
[12]
  Kd: 0.0386 nM
[1]
  Kd: 0.0399 nM

B27: AB6.13 (antibody, V domains shown)
VH: B3 VH with N55Q
VL: B3 VL with K24R, S26R, D28G, H46I
[2]
  EC50 (read off the curve): ~0.03 nM
[6]
  EC50 (read off the curve): ~0.07 nM
